Assay results reported in paper PMC2712759 (2009).

Molecular target: purified recombinant Hsp70 (UniProt P0DMV8 1-641)
Sequence (P0DMV8 whole entry): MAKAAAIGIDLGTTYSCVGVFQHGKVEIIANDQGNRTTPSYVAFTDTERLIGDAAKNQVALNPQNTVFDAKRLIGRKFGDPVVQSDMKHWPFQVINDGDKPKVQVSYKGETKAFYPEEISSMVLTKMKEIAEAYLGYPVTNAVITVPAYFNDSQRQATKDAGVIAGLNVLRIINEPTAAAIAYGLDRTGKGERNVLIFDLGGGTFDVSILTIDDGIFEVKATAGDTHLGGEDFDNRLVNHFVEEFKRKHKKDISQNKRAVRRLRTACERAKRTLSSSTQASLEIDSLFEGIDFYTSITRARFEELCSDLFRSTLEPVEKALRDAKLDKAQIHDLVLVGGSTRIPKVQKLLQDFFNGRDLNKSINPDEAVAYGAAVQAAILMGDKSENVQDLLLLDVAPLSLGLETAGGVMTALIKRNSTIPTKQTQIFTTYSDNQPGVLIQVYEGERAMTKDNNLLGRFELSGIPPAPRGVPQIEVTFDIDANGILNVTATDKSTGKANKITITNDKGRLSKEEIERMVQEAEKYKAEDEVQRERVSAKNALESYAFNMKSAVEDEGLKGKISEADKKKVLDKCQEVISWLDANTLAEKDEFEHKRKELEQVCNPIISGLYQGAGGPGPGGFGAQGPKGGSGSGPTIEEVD

B1: recombinant normal PABPN1 (wt-PABPN1) from E. coli (natural protein)
chain: MAAAAAAAAAAGAAGGRGSGPGRRRHLVPGAGGEAGEGAPGGAGDYGNGLESEELEPEELLLEPEPEPEPEEEPPRPRAPPGAPGPGPGSGAPGSQEEEEEPGLVEGDPGDGAIEDPELEAIKARVREMEEEAEKLKELQNEVEKQMNMSPPPGNAGPVIMSIEEKMEADARSIYVGNVDYGATAEELEAHFHGCGSVNRVTILCDKFSGHPKGFAYIEFSDKESVRTSLALDESLFRGRQIKVIPKRTNRPGISTTDRGFPRARYRARTTNYNSSRSRFYSGFNSRPRGRVYRGRARATSWYSPY
  Kd: 14 µM
